Measurements as given in paper PMC12809078.

Target: full-length SUMO-CtBP2 (human) (UniProt P56545)
Test: SEC; Superose 6 Increase 10/300 GL; 20 mM Tris-HCl pH 8.0, 150 mM NaCl, 2 mM DTT; 0.35 ml/min

- stoichiometry N: 4
Substance: full-length SUMO-CtBP2, P56545 1-445 (natural protein; other documents disagree on this pair)
